Experiments:
[1] = target: N-acetyltransferase C-terminal region (CTR) of RmNag (Rhizomucor miehei); assay: not stated; NTR and CTR 'in solution'; the sentence names no method (it follows the SEC estimate for the full-length protein)
[2] = target: full-length β-N-acetylglucosaminidase from Rhizomucor miehei (RmNag) (Rhizomucor miehei); assay: SEC; size-exclusion chromatography of full-length RmNag; native molecular mass approx. 230 kDa; data not shown

Row | stoichiometry N [1] | stoichiometry N [2] | Substance
1 | 2 | – | N-acetyltransferase C-terminal region (CTR) of RmNag (domain or fragment)
2 | – | 2 | full-length β-N-acetylglucosaminidase from Rhizomucor miehei (RmNag) (enzyme)

— PMC4680927
